According to the supplement of paper PMC10724198:
± gives the standard deviation of the averaged measurements.

These sequences were tested on Saccharomyces cerevisiae (assay: protein stability index of tFT-peptide fusion (C-terminal peptide) (PSI (0-1 scale)); higher = more stable (slower turnover)). Conditions: genetic background: wild type; temperature: 30 C.
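Note: PSI is a weighted mean of sequencing reads over stability bins, variants kept only with over 10 reads, mCherry proximal and sfGFP distal, peptide attached via GGGS linker.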

In order of falling protein stability index:
1. LISRFFPSRSAP  0.854 ± 0.021
2. PPAPYPPFPLEL  0.821 ± 0.078
3. PRPPSPPPPSPA  0.808 ± 0.072
4. GWWCAGVREWTR  0.8 ± 0.013
5. TPPSPDPSPPNT  0.789 ± 0.046
6. CRSNISDLFSSV  0.7793 ± 0.0063
7. GCRPFLLKSQTF  0.777 ± 0.11
8. FLSHISVPRGKT  0.773 ± 0.034
9. GGFGEFTWAEAA  0.768 ± 0.0087
10. SRWLLSLFTSSF  0.762 ± 0.052
11. PPPLSFPSVYLT  0.75 ± 0.12
12. HTYKADSLYTAR  0.748 ± 0.015
13. PPRLHPAPPPRT  0.747 ± 0.033
14. ARSSILRCRGYR  0.747 ± 0.095
15. LRSGSLVSLPPL  0.747 ± 0.1
16. RRSGLTNLCSLH  0.746 ± 0.04
17. GVSPSPPSPPPH  0.741 ± 0.062
18. EWCQVGGRGFLG  0.74 ± 0.021
19. PPSVPPPLPHPV  0.74 ± 0.037
20. SLPYPFSLLPSL  0.739 ± 0.03
21. MYAWPISPRPLL  0.738 ± 0.052
22. DPFYRNFARREA  0.738 ± 0.026
23. CSLVWPGSMSVD  0.738 ± 0.033
24. YLPWFADLHPGV  0.737 ± 0.073
25. GAFLGSPWAAAS  0.731 ± 0.04
26. HSPVPPLPALPL  0.73 ± 0.024
27. VGRRDNHPTEKT  0.73 ± 0.025
28. LGHQFKGTILRV  0.73 ± 0.059
29. GDWLVVRLVPSK  0.728 ± 0.013
30. FSPTPSRLSCDR  0.728 ± 0.027
31. VRGVGLVDVVGL  0.727 ± 0.12
32. PPLNPHPPAPTP  0.724 ± 0.032
33. ENANWHSKNMSK  0.723 ± 0.071
34. SGYSTRPLSSRS  0.723 ± 0.041
35. RKVTQSKQGKKR  0.722 ± 0.0093
36. APPRPPTLHRPH  0.721 ± 0.0085
37. DFVGCSGRGSFV  0.72 ± 0.023
38. VVSLGLGGFVVR  0.719 ± 0.033
39. PMLSDVPTHSIS  0.719 ± 0.039
40. EGGERERGNRER  0.7176 ± 0.0069
41. RKSRKPNSEPKR  0.717 ± 0.0072
42. GPFLFPGASCGL  0.717 ± 0.011
43. YSVDGTGVGLWV  0.717 ± 0.016
44. FHYALRLLDFNN  0.716 ± 0.12
45. KSGVWLWVGGGG  0.714 ± 0.033
46. DIGSSGRVGGLG  0.712 ± 0.031
47. PGWHLDPITALP  0.712 ± 0.027
48. FAGGPSIAAHVL  0.712 ± 0.2
49. NGRENVHEWQRG  0.711 ± 0.018
50. LPVPLAAFTTLH  0.711 ± 0.084
51. GAAPRWSGDRRW  0.71 ± 0.06
52. RVLWVELGSWGG  0.708 ± 0.045
53. PPPFPYRTALLP  0.708 ± 0.016
54. SSPSYVPVSYSQ  0.708 ± 0.066
55. EETRRKKRTGKK  0.707 ± 0.0099
56. GGFFPRISSLTV  0.707 ± 0.054
57. GITAWMAHPRSV  0.706 ± 0.012
58. GRGGRGWGEWDR  0.706 ± 0.059
59. CSLFIRCAPFCG  0.705 ± 0.017
60. DKACVHPRTVTG  0.703 ± 0.07
61. RLHHQYSEATIS  0.703 ± 0.027
62. PMSPCPTRSINA  0.702 ± 0.031
63. PLLPLSFRIPPF  0.702 ± 0.014
64. PDRQNLSRPEKD  0.702 ± 0.0092
65. DEWAGKYLKTIA  0.702 ± 0.013
66. GFMRGVREKSSR  0.701 ± 0.0073
67. CISIRKEERRKI  0.7012 ± 0.0019
68. WIDSGCALVEIA  0.701 ± 0.045
69. KKKKEEKNRQES  0.7 ± 0.077
70. RRRQARGANAHS  0.7 ± 0.013
71. KQKKNKKKKQNR  0.699 ± 0.036
72. GRSAGGTGAPSR  0.699 ± 0.022
73. MRKGKGGGPRRR  0.699 ± 0.023
74. VLPPPRHPLPRP  0.698 ± 0.04
75. ALFPRLVRPGFV  0.697 ± 0.036
76. PRTDIGGAGLGE  0.6961 ± 0.0019
77. LPSGVPPPPPLP  0.695 ± 0.063
78. PPKPAQPPTPSP  0.693 ± 0.075
79. VIARALGLFLSD  0.693 ± 0.035
80. FLGQPLSFSHVL  0.692 ± 0.035
81. SVTTNDQLPCHS  0.691 ± 0.026
82. VREMMGFWFVPL  0.691 ± 0.11
83. IKSKFILKTRPM  0.691 ± 0.091
84. PSFPSSPSPVTL  0.69 ± 0.035
85. SPPSFIVPSTSL  0.69 ± 0.054
86. SEGLFSVLYIWM  0.687 ± 0.16
87. WRCSAITASEYL  0.686 ± 0.032
88. GEVVRGGEWGLD  0.686 ± 0.057
89. AVPAPPPTLPPI  0.685 ± 0.051
90. IFRTRISSSLWC  0.685 ± 0.0083
91. LCGVRGESGLEG  0.685 ± 0.031
92. RIALWPTSMPAL  0.684 ± 0.041
93. GGVKVRGGMGPE  0.684 ± 0.019
94. PPPRPSPPPSRP  0.684 ± 0.021
95. PPPSLPFPPPHP  0.6827 ± 0.0029
96. SLLSLSPACLPL  0.683 ± 0.026
97. TMEKKAKKRIKK  0.682 ± 0.23
98. PVLPFPSPPAAS  0.682 ± 0.078
99. TDLGYGRLGGWV  0.682 ± 0.083
100. PPPPPASTPASS  0.6808 ± 0.0013
101. PVWLLHIRPPIP  0.681 ± 0.058
102. QRTQRGKQPGQR  0.679 ± 0.08
103. VGCFLDSLWDWV  0.679 ± 0.022
104. LRSARPALLCTP  0.678 ± 0.037
105. PFTHRTYREGRT  0.676 ± 0.081
106. WGPGGRLGVGHV  0.676 ± 0.039
107. SPSNPSLRLSSP  0.676 ± 0.023
108. GGGARREGAGRG  0.6752 ± 0.0064
109. YTTFNLSQTLNG  0.674 ± 0.023
110. RSTLSPSPRPSP  0.674 ± 0.0042
111. HRRCPILFKMAT  0.674 ± 0.12
112. RGWVAGGSSAWS  0.673 ± 0.054
113. RTAVFLTRRYGT  0.673 ± 0.02
114. GGLLLPCGAFGG  0.673 ± 0.06
115. GLADPPNSRPAG  0.673 ± 0.05
116. ERFRWRRNRSLG  0.672 ± 0.16
117. IKNSCAGCTRDV  0.671 ± 0.035
118. FLRCALRLRFGF  0.671 ± 0.038
119. ALRGWIRRRFPV  0.671 ± 0.03
120. TPWLRGVVGPGS  0.671 ± 0.083
121. EYDIKRRKRRNT  0.67 ± 0.23
122. KIKNKYKEKKKK  0.67 ± 0.0079
123. GAGGVGVTSGGK  0.668 ± 0.056
124. SLGCIPLVDFLR  0.668 ± 0.0072
125. GICLLRLDTFNI  0.667 ± 0.1
126. GPFRGRCFPFCI  0.667 ± 0.037
127. SHPPATMRAASV  0.6646 ± 0.0043
128. KIINKKKKRKKN  0.665 ± 0.023
129. LPFPPPIIATPP  0.665 ± 0.13
130. CSLSYFSAHCVP  0.665 ± 0.044
131. LPFLVSPPLFRT  0.664 ± 0.063
132. SPHPRKTTSHPR  0.6642 ± 0.0015
133. LCRPNELPDGLP  0.664 ± 0.039
134. FCGFLVLGSFPV  0.664 ± 0.072
135. QVGGVRSRGAAG  0.664 ± 0.017
136. ADSGAHTISTVC  0.663 ± 0.01
137. GRGGGEEEEEER  0.663 ± 0.024
138. TLSSPPPPPPPP  0.663 ± 0.046
139. PSRTTPARPPLT  0.662 ± 0.061
140. LVFVPTLFPPPG  0.662 ± 0.053
141. ATHSMSYRGSTK  0.662 ± 0.081
142. RGTGRLDRLGLR  0.662 ± 0.043
143. RIAWTKEKMGKT  0.661 ± 0.024
144. PRSPSPPRSPSP  0.66 ± 0.12
145. SWCRCLALLDCT  0.659 ± 0.028
146. DSFDLPCLFKVP  0.659 ± 0.078
147. LWGGGVGRVRGV  0.658 ± 0.022
148. GFPILSGLAVVR  0.6578 ± 0.0055
149. PSPPLLPPPLYT  0.658 ± 0.014
150. VNKNKKNVEYIK  0.657 ± 0.013
151. CPFPLPPPTLPP  0.657 ± 0.01
152. KKEKNQEKRKKE  0.657 ± 0.021
153. PLPSPRLRFLVP  0.653 ± 0.036
154. GEGLGGGRGRRW  0.653 ± 0.026
155. PPPPPLSSPPSP  0.652 ± 0.049
156. GGVGGFGGAGLG  0.65 ± 0.023
157. GPGTYGASLSGR  0.65 ± 0.053
158. DRRQLSVVARRT  0.648 ± 0.027
159. ASQSFSFITFTY  0.645 ± 0.056
160. ETEKHGIRRRQG  0.644 ± 0.027
161. FRWGGPSGEVRE  0.643 ± 0.1
162. VCIGVGGVVLGL  0.642 ± 0.039
163. VVQLSKWSTIIR  0.64 ± 0.061
164. VVVVSGFKGSCL  0.637 ± 0.065
165. PRFPPLPAHRVR  0.633 ± 0.047
166. GRLPAYIHATRA  0.63128 ± 0.00047
167. VWGTVCSMRREG  0.63 ± 0.028
168. KKIEHRVLNELK  0.6288 ± 0.00069
169. GVVGVGRCWGLV  0.628 ± 0.08
170. DGGSGQGMLGGS  0.628 ± 0.043
171. AAVSSDASVLRF  0.628 ± 0.027
172. KDRKKYIMTKPS  0.627 ± 0.051
173. PHRSRPPPTPPV  0.625 ± 0.061
174. FDLVFRPVLGLL  0.6246 ± 0.0052
175. PPAPSPPPPPPP  0.622 ± 0.055
176. KLKIINENKLQN  0.618 ± 0.087
177. LLQRFTTVPTLL  0.616 ± 0.083
178. GSSHLRFRGMEG  0.614 ± 0.02
179. GARGCSATGPPG  0.61 ± 0.02
180. PPRLSPAPPASP  0.605 ± 0.009
181. ELTLTVFQVGEE  0.602 ± 0.025
182. DRCSRFRCFFVG  0.6 ± 0.031
183. LNLWVVYRLLGV  0.599 ± 0.038
184. MVLTVIHFDCDI  0.596 ± 0.014
185. GGTAYFSNRGWA  0.595 ± 0.036
186. FPLLCAAPLLSS  0.594 ± 0.0012
187. LSPSPTSHSRLL  0.589 ± 0.024
188. YKKKKEEKNKKN  0.583 ± 0.046
189. VTVCQTRGADSV  0.579 ± 0.01
190. GNLFIGLLHITC  0.5753 ± 0.0034
191. VVVVCSWPVSLL  0.5744 ± 0.0042
192. LSVAFFILRVPL  0.573 ± 0.071
193. SVGLTGHGTRGV  0.571
194. PPLLLRFLTIHL  0.571 ± 0.027
195. PAGLITRSWNLV  0.565 ± 0.028
196. CLRWSRVGTVVV  0.564 ± 0.025
197. FGFLDRVLLFRV  0.547 ± 0.013
198. TDFRSGLIFIIV  0.544 ± 0.045
199. PPPLSCPSRPSL  0.526 ± 0.12
200. CCCGSGFFLLKV  0.525 ± 0.021
201. ECYKKFVCSCCT  0.515 ± 0.0086
202. QTWVQIGIRITL  0.44 ± 0.087
